B1: GIGYF2 (protein, UniProt Q6Y7W6 2-1299, looked up)
GRB10-interacting GYF protein …: AAETQTLNFGPEWLRALSSGGSITSPPLSPALPKYKLADYRYGREEMLALFLKDNKIPSDLLDKEFLPILQEEPLPPLALVPFTEEEQRNFSMSVNSAAVLRLTGRGGGGTVVGAPRGRSSSRGRGRGRGECGFYQRSFDEVEGVFGRGGGREMHRSQSWEERGDRRFEKPGRKDVGRPNFEEGGPTSVGRKHEFIRSESENWRIFREEQNGEDEDGGWRLAGSRRDGERWRPHSPDGPRSAGWREHMERRRRFEFDFRDRDDERGYRRVRSGSGSIDDDRDSLPEWCLEDAEEEMGTFDSSGAFLSLKKVQKEPIPEEQEMDFRPVDEGEECSDSEGSHNEEAKEPDKTNKKEGEKTDRVGVEASEETPQTSSSSARPGTPSDHQSQEASQFERKDEPKTEQTEKAEEETRMENSLPAKVPSRGDEMVADVQQPLSQIPSDTASPLLILPPPVPNPSPTLRPVETPVVGAPGMGSVSTEPDDEEGLKHLEQQAEKMVAYLQDSALDDERLASKLQEHRAKGVSIPLMHEAMQKWYYKDPQGEIQGPFNNQEMAEWFQAGYFTMSLLVKRACDESFQPLGDIMKMWGRVPFSPGPAPPPHMGELDQERLTRQQELTALYQMQHLQYQQFLIQQQYAQVLAQQQKAALSSQQQQQLALLLQQFQTLKMRISDQNIIPSVTRSVSVPDTGSIWELQPTASQPTVWEGGSVWDLPLDTTTPGPALEQLQQLEKAKAAKLEQERREAEMRAKREEEERKRQEELRRQQEEILRRQQEEERKRREEEELARRKQEEALRRQREQEIALRRQREEEERQQQEEALRRLEERRREEEERRKQEELLRKQEEEAAKWAREEEEAQRRLEENRLRMEEEAARLRHEEEERKRKELEVQRQKELMRQRQQQQEALRRLQQQQQQQQLAQMKLPSSSTWGQQSNTTACQSQATLSLAEIQKLEEERERQLREEQRRQQRELMKALQQQQQQQQQKLSGWGNVSKPSGTTKSLLEIQQEEARQMQKQQQQQQQHQQPNRARNNTHSNLHTSIGNSVWGSINTGPPNQWASDLVSSIWSNADTKNSNMGFWDDAVKEVGPRNSTNKNKNNASLSKSVGVSNRQNKKVEEEEKLLKLFQGVNKAQDGFTQWCEQMLHALNTANNLDVPTFVSFLKEVESPYEVHDYIRAYLGDTSEAKEFAKQFLERRAKQKANQQRQQQQLPQQQQQQPPQQPPQQPQQQDSVWGMNHSTLHSVFQTNQSNNQQSNFEAVQSGKKKKKQKMVRADPSLLGFSVNASSERLNMGEIETLDDY
B2: TMEM33 (protein, UniProt P57088 2-247, looked up)
Transmembrane protein 33: ADTTPNGPQGAGAVQFMMTNKLDTAMWLSRLFTVYCSALFVLPLLGLHEAASFYQRALLANALTSALRLHQRLPHFQLSRAFLAQALLEDSCHYLLYSLIFVNSYPVTMSIFPVLLFSLLHAATYTKKVLDARGSNSLPLLRSVLDKLSANQQNILKFIACNEIFLMPATVFMLFSGQGSLLQPFIYYRFLTLRYSSRRNPYCRTLFNELRIVVEHIIMKPACPLFVRRLCLQSIAFISRLAPTVP
B3: HSD17B4 (protein, UniProt P51659 1-736, looked up)
Peroxisomal multifunctional …: MGSPLRFDGRVVLVTGAGAGLGRAYALAFAERGALVVVNDLGGDFKGVGKGSLAADKVVEEIRRRGGKAVANYDSVEEGEKVVKTALDAFGRIDVVVNNAGILRDRSFARISDEDWDIIHRVHLRGSFQVTRAAWEHMKKQKYGRIIMTSSASGIYGNFGQANYSAAKLGLLGLANSLAIEGRKSNIHCNTIAPNAGSRMTQTVMPEDLVEALKPEYVAPLVLWLCHESCEENGGLFEVGAGWIGKLRWERTLGAIVRQKNHPMTPEAVKANWKKICDFENASKPQSIQESTGSIIEVLSKIDSEGGVSANHTSRATSTATSGFAGAIGQKLPPFSYAYTELEAIMYALGVGASIKDPKDLKFIYEGSSDFSCLPTFGVIIGQKSMMGGGLAEIPGLSINFAKVLHGEQYLELYKPLPRAGKLKCEAVVADVLDKGSGVVIIMDVYSYSEKELICHNQFSLFLVGSGGFGGKRTSDKVKVAVAIPNRPPDAVLTDTTSLNQAALYRLSGDWNPLHIDPNFASLAGFDKPILHGLCTFGFSARRVLQQFADNDVSRFKAIKARFAKPVYPGQTLQTEMWKEGNRIHFQTKVQETGDIVISNAYVDLAPTSGTSAKTPSEGGKLQSTFVFEEIGRRLKDIGPEVVKKVNAVFEWHITKGGNIGAKWTIDLKSGSGKVYQGPAKGAADTTIILSDEDFMEVVLGKLDPQKAFFSGRLKARGNIMLSQKLQMILKDYAKL
B4: CENPV (protein, UniProt Q7Z7K6 1-275, looked up)
Centromere protein V: MRRSRSSAAAKLRGQKRSGASGASAAPAASAAAALAPSATRTRRSASQAGSKSQAVEKPPSEKPRLRRSSPRAQEEGPGEPPPPELALLPPPPPPPPTPATPTSSASNLDLGEQRERWETFQKRQKLTSEGAAKLLLDTFEYQGLVKHTGGCHCGAVRFEVWASADLHIFDCNCSICKKKQNRHFIVPASRFKLLKGAEHITTYTFNTHKAQHTFCKRCGVQSFYTPRSNPGGFGIAPHCLDEGTVRSMVTEEFNGSDWEKAMKEHKTIKNMSKE
B5: TJP2 (protein, UniProt Q9UDY2 1-1190, looked up)
Tight junction protein 2: MPVRGDRGFPPRRELSGWLRAPGMEELIWEQYTVTLQKDSKRGFGIAVSGGRDNPHFENGETSIVISDVLPGGPADGLLQENDRVVMVNGTPMEDVLHSFAVQQLRKSGKVAAIVVKRPRKVQVAALQASPPLDQDDRAFEVMDEFDGRSFRSGYSERSRLNSHGGRSRSWEDSPERGRPHERARSRERDLSRDRSRGRSLERGLDQDHARTRDRSRGRSLERGLDHDFGPSRDRDRDRSRGRSIDQDYERAYHRAYDPDYERAYSPEYRRGARHDARSRGPRSRSREHPHSRSPSPEPRGRPGPIGVLLMKSRANEEYGLRLGSQIFVKEMTRTGLATKDGNLHEGDIILKINGTVTENMSLTDARKLIEKSRGKLQLVVLRDSQQTLINIPSLNDSDSEIEDISEIESNRSFSPEERRHQYSDYDYHSSSEKLKERPSSREDTPSRLSRMGATPTPFKSTGDIAGTVVPETNKEPRYQEDPPAPQPKAAPRTFLRPSPEDEAIYGPNTKMVRFKKGDSVGLRLAGGNDVGIFVAGIQEGTSAEQEGLQEGDQILKVNTQDFRGLVREDAVLYLLEIPKGEMVTILAQSRADVYRDILACGRGDSFFIRSHFECEKETPQSLAFTRGEVFRVVDTLYDGKLGNWLAVRIGNELEKGLIPNKSRAEQMASVQNAQRDNAGDRADFWRMRGQRSGVKKNLRKSREDLTAVVSVSTKFPAYERVLLREAGFKRPVVLFGPIADIAMEKLANELPDWFQTAKTEPKDAGSEKSTGVVRLNTVRQIIEQDKHALLDVTPKAVDLLNYTQWFPIVIFFNPDSRQGVKTMRQRLNPTSNKSSRKLFDQANKLKKTCAHLFTATINLNSANDSWFGSLKDTIQHQQGEAVWVSEGKMEGMDDDPEDRMSYLTAMGADYLSCDSRLISDFEDTDGEGGAYTDNELDEPAEEPLVSSITRSSEPVQHEESIRKPSPEPRAQMRRAASSDQLRDNSPPPAFKPEPPKAKTQNKEESYDFSKSYEYKSNPSAVAGNETPGASTKGYPPPVAAKPTFGRSILKPSTPIPPQEGEEVGESSEEQDNAPKSVLGKVKIFEKMDHKARLQRMQELQEAQNARIEIAQKHPDIYAVPIKTHKPDPGTPQHTSSRPPEPQKAPSRPYQDTRGSYGSDAEEEEYRQQLSEHSKRGYYGQSARYRDTEL

Legend:
GFP-14-3-3β = GFP-14-3-3β co-IP with LC-MS/MS, untreated GFP-14-3-3β versus GFP control (14-3-3 interactome); type: binding, human
[1] = system: GFP-14-3-3β and its binding proteins; test: GFP-14-3-3β co-IP with LC-MS/MS label-free quantification, untreated versus PP1c-treated; parameters: species or system human
[2] = untreated vs GFP, LFQ intensities, replicates 1-3
[3] = PP1 vs untreated, LFQ intensities, replicates 1-3

| Molecule | Difference (log2), untreated vs GFP (GFP-14-3-3β; [2]) | Difference (log2), PP1 vs untreated [1, 3] | Difference (log2), untreated vs GFP (GFP-14-3-3β; log2 difference, pairwise comparison untreated vs GFP, label-free quantification, 3 replicates each) | Difference (log2), PP1 vs untreated ([1]; log2 difference, pairwise comparison PP1 vs untreated, label-free quantification, 3 replicates each) |
| --- | --- | --- | --- | --- |
| B1 | 2.445 log2 | -0.9344 log2 |  |  |
| B2 |  |  | 0.3842 | 1.645 |
| B3 | -0.9814 log2 | -0.9107 log2 |  |  |
| B4 | 2.895 log2 | -0.9888 log2 |  |  |
| B5 | 5.699 log2 | -0.9629 log2 |  |  |

From PMC7367873, “Dissecting the sequence determinants for dephosphorylation by the catalytic subunits of phosphatases PP1 and PP2A” (Nature Communications, 2020)
